{
  "source": "paper PMC4482762",
  "biological_target": "endogenous 14-3-3ε (UniProt P62258)",
  "experiment": "GFP-Trap of YFP-R6, Western blot",
  "details": "reference: YFP-R6 wild type; sites S74",
  "data": [
    {"substance": "PPP1R3D (R6) (from UniProt O95685) YFP-R6 S74A", "values": [
      {"measurement": "binding against the reference", "value": "lost"}
    ]}
  ]
}
